Residue numbers refer to the chain shown, from its start. One block for each binder: values may come before it.
Target: T1, human CD19 on CD19+ cells (Raji, Daudi, Ramos, SU-DHL-10, Nalm6) (human, UniProt P15391 20-556)
T1 construct: whole, on cells; also called B-Lymphocyte Surface Antigen B4
T1 sequence (looked up): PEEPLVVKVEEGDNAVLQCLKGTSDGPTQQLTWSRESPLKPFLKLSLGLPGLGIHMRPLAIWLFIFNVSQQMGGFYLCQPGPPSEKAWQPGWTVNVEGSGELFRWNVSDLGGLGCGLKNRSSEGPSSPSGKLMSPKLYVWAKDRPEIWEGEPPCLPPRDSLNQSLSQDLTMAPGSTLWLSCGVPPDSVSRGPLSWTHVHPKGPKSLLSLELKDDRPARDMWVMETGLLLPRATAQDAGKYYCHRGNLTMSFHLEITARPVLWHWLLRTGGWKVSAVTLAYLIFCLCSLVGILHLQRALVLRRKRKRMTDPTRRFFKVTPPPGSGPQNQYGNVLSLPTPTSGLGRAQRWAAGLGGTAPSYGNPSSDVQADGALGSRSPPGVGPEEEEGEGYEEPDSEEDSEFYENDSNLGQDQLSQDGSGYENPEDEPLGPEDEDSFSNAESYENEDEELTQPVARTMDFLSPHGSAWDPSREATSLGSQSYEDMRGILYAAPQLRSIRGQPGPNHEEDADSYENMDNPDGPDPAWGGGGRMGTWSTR
Experiment: cell-binding assay on CD19+ cells

binding result: binds
B1: anti-CD19 heavy chain-only antibody (UniAb) clone ID 370083 (antibody, V domains shown)
VH: QVQLVESGGGLVKPGGSLRLSCAASGFTFSDYYMSWIRQAPGKGLEWVSYMSSSGSTIYYADSVKGRFTISRDNAKNSLYLQMTSLRAEDTAVYYCARGGIAATGTWGQGTLVTVSS
notes: Heavy chain-only antibody with no light chain, tested as purified UniAb and detected with anti-human IgG; Only the VH is tied to the clone

binding result: binds
B2: anti-CD19 heavy chain-only antibody (UniAb) clone ID 370034 (antibody, V domains shown)
VH: B1 VH with N77K, T84N, T104A
notes: Heavy chain-only antibody with no light chain, tested as purified UniAb and detected with anti-human IgG; Only the VH is tied to the clone; also called HCAb 370034

— patent US20240042032A1 (TENEOBIO, published 2024)
